Experimental data reported in PMC5384775.
Substitutions are numbered along the chain they refer to. In names and notes the source's numbering stands.

B1: His-tagged WT vinculin, Q64727 D974A; K975A; R976A; R978A (protein)
chain: MPVFHTRTIESILEPVAQQISHLVIMHEEGEVDGKAIPDLTAPVAAVQAAVSNLVRVGKETVQTTEDQILKRDMPPAFIKVENACTKLVQAAQMLQSDPYSVPARDYLIDGSRGILSGTSDLLLTFDEAEVRKIIRVCKGILEYLTVAEVVETMEDLVTYTKNLGPGMTKMAKMIDERQQELTHQEHRVMLVNSMNTVKELLPVLISAMKIFVTTKNSKNQGIEEALKNRNFTVEKMSAEINEIIRVLQLTSWDEDAWASKDTEAMKRALASIDSKLNQAKGWLRDPNASPGDAGEQAIRQILDEAGKVGELCAGKERREILGTCKMLGQMTDQVADLRARGQGASPVAMQKAQQVSQGLDVLTAKVENAARKLEAMTNSKQSIAKKIDAAQNWLADPNGGPEGEEQIRGALAEARKIAELCDDPKERDDILRSLGEIAALTSKLGDLRRQGKGDSPEARALAKQVATALQNLQTKTNRAVANSRPAKAAVHLEGKIEQAQRWIDNPTVDDRGVGQAAIRGLVAEGHRLANVMMGPYRQDLLAKCDRVDQLTAQLADLAARGEGESPQARALASQLQDSLKDLKAQMQEAMTQEVSDVFSDTTTPIKLLAVAATAPPDAPNREEVFDERAANFENHSGRLGATAEKAAAVGTANKSTVEGIQASVKTARELTPQVISAARILLRNPGNQAAYEHFETMKNQWIDNVEKMTGLVDEAIDTKSLLDASEEAIKKDLDKCKVAMANIQPQMLVAGATSIARRANRILLVAKREVENSEDPKFREAVKAASDELSKTISPMVMDAKAVAGNISDPGLQKSFLDSGYRILGAVAKVREAFQPQEPDFPPPPPDLEQLRLTDELAPPKPPLPEGEVPPPRPPPPEEKDEEFPEQKAGEVINQPMMMAARQLHDEARKWSSKGNDIIAAAKRMALLMAEMSRLVRGGSGTKRALIQCAKDIAKASDEVTRLAKEVAKQCTAAAIATNLLQVCERIPTISTQLKILSTVKATMLGRTNISDEESEQATEMLVHNAQNLMQSVKETVREAEAASIKIRTDAGFTLRWVRKTPWYQ
B2: His-tagged WT vinculin, Q64727 I997A; V1001A (protein)
chain: B1 chain with A974D, A975K, A976R, A978R, I997A, V1001A

Legend:
[1] = target: filamentous actin (F-actin) (UniProt P68135); test: co-sedimentation; His-tagged vinculin or mutants (2 uM; WT also at 0.25 uM with 10 or 25 uM peptide) with 4 uM pre-polymerized F-actin and 25 uM VBS3(talin) peptide as activator; 50 mM Tris-HCl pH 8.0, 0.2 mM MgCl2, 0.2 mM ATP, 1 mM DTT; 1 h at 24 C; 150,000 x g 1 h at 4 C; SDS-PAGE, CBB staining, ratio of precipitated to total vinculin by ImageJ
[2] = target: filamentous actin (F-actin) (UniProt P68135); test: co-sedimentation; His-tagged vinculin or mutants (1 uM) with 4 uM pre-polymerized F-actin and 10 uM GST-VBS(IpaA 610-633) as activator; 50 mM Tris-HCl pH 8.0, 0.2 mM MgCl2, 0.2 mM ATP, 1 mM DTT; 1 h at 24 C; 150,000 x g 1 h at 4 C; SDS-PAGE, CBB staining, ratio of precipitated to total vinculin by ImageJ
[3] = target: filamentous actin (F-actin), P68135; test: actin co-sedimentation assay; settings: chain shown with the change

Molecule | percent of vinculin coprecipitated with F-actin [2] [%] | other results
His-tagged WT vinculin (from UniProt Q64727 1-1066) (natural protein) | 84 | percent of vinculin coprecipitated with F-actin [1]: 40%
His-tagged vinculin IA mutant (I997A) (from UniProt Q64727 1-1066) (natural protein) | 42 | 
His-tagged vinculin VA mutant (V1001A) (from UniProt Q64727 1-1066) (natural protein) | 53 | 
B1 |  | response ([3]; 2 μM His-tagged vinculin, 25 μM VBS3(talin), parent: est. 41, read off a plot): 59%
B2 |  | response ([3]; 1 μM His-tagged vinculin, 10 μM GST-VBS(IpaA), parent: est. 84, read off a plot): 43%
